Experiments:
purified protein [1] = substrate: O=C1O[C@@H](COP(=O)(O)O)[C@H](O)[C@@H]1O; experiment: purified protein; format: biochemical, Halalkalibacterium halodurans; conditions: [Co/Co] form, 2.5 mM Bicine pH 8.3, 0.2 M NaCl, 1% DMSO
purified protein [2] = substrate: O=C1O[C@H](COP(=O)(O)O)[C@H](O)[C@@H]1O; experiment: purified protein; format: biochemical, Halalkalibacterium halodurans; conditions: [Co/Co] form, 2.5 mM Bicine pH 8.3, 0.2 M NaCl, 1% DMSO

B1: Bh0225 (Halalkalibacterium halodurans C-125) (protein)
chain: MSFIRTLRGDINPEELGFTYSHEHIVCRPDYWVQRQEGDLLLDDKEKSKRDVEDFKRHGGNSIVDATAVDYGRDVGAVKAISDELDVHIIGTAGFNKSFLWNAKIKEELKPIIGGQYDTFAEWIDGSTIHDLTEFVVREVEEGLEGTPWKAGQVKFGTGYNRISPLEEKTLRAVARAHHETKAPIHSHTEVGTMALEQIELLKSEGINLEHVSIGHMDRNPDPYYHEQIAKTGAFLSFDGIGKIKYAPESTRIHCILELVKKGYDQQILISGDTARKTYYKHYDYGLGLEYIIAKWIPRFISEANHRGFDGEALIHTFFVENPARCFAFKL
**Q.** For B1, which Km (purified protein [1]) is on record?
**A.** 200 ± 20 µM

**Q.** What about the kcat (purified protein [1]) of the same protein?
**A.** 30 ± 1 s⁻¹

**Q.** What about the kcat/Km (purified protein [1]) of the same protein?
**A.** 150000 ± 15000 M⁻¹ s⁻¹

**Q.** What about the Km (purified protein [2]) of the same protein?
**A.** 240 ± 20 µM

**Q.** And the kcat (purified protein [2])?
**A.** 24 ± 1 s⁻¹

**Q.** And the kcat/Km (purified protein [2])?
**A.** 100000 ± 10000 M⁻¹ s⁻¹

— PMC3298459
